According to publication PMC10397247:
Each block holds one binder with its values, some of them ahead of it.

Experiments:
4H883-bN = biological target: T1, 4H883-bN; test: two-hybrid library CCNG1;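 note: natural log of median RNA to DNA barcode read ratio; higher means stronger binding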
T1 chain: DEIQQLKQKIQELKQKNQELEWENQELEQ

4H454-bN = biological target: T2, 4H454-bN; test: two-hybrid library CCNG1;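 note: natural log of median RNA to DNA barcode read ratio; higher means stronger binding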
T2 chain: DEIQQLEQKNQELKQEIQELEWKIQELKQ

4H918-bN = biological target: T3, 4H918-bN; test: two-hybrid library CCNG1;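 note: natural log of median RNA to DNA barcode read ratio; higher means stronger binding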
T3 chain: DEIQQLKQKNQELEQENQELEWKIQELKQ

4H908-bN = biological target: T4, 4H908-bN; test: two-hybrid library CCNG1;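 note: natural log of median RNA to DNA barcode read ratio; higher means stronger binding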
T4 chain: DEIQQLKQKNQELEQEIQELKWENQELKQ

4H3855-bN = biological target: T5, 4H3855-bN; test: two-hybrid library CCNG1;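 note: natural log of median RNA to DNA barcode read ratio; higher means stronger binding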
T5 chain: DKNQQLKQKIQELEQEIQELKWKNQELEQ

4H338-bN = biological target: T6, 4H338-bN; test: two-hybrid library CCNG1;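 note: natural log of median RNA to DNA barcode read ratio; higher means stronger binding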
T6 chain: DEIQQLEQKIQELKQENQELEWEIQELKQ

4H568-bN = biological target: T7, 4H568-bN; test: two-hybrid library CCNG1
T7 chain: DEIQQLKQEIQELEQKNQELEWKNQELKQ

4H953-bN = biological target: T8, 4H953-bN; test: two-hybrid library CCNG1
T8 chain: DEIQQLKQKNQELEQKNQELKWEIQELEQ

4H3427-bN = biological target: T9, 4H3427-bN; test: two-hybrid library CCNG1
T9 chain: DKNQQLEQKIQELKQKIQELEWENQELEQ

4H72-bN = biological target: T10, 4H72-bN; test: two-hybrid library CCNG1
T10 chain: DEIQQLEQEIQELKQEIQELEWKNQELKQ

4H967-bN = biological target: T11, 4H967-bN; test: two-hybrid library CCNG1
T11 chain: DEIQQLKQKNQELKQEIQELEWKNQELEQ

4H4001-bN = biological target: T12, 4H4001-bN; test: two-hybrid library CCNG1
T12 chain: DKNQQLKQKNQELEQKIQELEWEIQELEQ

4H3782-bN = biological target: T13, 4H3782-bN; test: two-hybrid library CCNG1
T13 chain: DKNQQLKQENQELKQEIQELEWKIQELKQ

4H3354-bN = biological target: T14, 4H3354-bN; test: two-hybrid library CCNG1
T14 chain: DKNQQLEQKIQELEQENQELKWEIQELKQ

4H687-bN = biological target: T15, 4H687-bN; test: two-hybrid library CCNG1
T15 chain: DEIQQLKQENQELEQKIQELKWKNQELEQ

4H797-bN = biological target: T16, 4H797-bN; test: two-hybrid library CCNG1
T16 chain: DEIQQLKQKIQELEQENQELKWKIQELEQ

4H607-bN = biological target: T17, 4H607-bN; test: two-hybrid library CCNG1
T17 chain: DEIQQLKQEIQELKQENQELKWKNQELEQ

4H717-bN = biological target: T18, 4H717-bN; test: two-hybrid library CCNG1
T18 chain: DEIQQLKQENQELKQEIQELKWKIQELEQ

4H754-bN = biological target: T19, 4H754-bN; test: two-hybrid library CCNG1
T19 chain: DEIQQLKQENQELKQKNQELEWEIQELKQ

4H570-bA = biological target: T20, 4H570-bA; test: two-hybrid library CCNG1
T20 chain: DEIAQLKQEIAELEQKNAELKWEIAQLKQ

4H850-bA = biological target: T21, 4H850-bA; test: two-hybrid library CCNG1
T21 chain: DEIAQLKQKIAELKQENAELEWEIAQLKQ

4H3974-bA = biological target: T22, 4H3974-bA; test: two-hybrid library CCNG1
T22 chain: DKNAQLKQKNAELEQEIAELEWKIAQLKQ

4H3858-bA = biological target: T23, 4H3858-bA; test: two-hybrid library CCNG1
T23 chain: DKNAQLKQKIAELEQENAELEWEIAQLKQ

4H2553-AA = biological target: T24, 4H2553-AA; test: two-hybrid library CCmax
T24 chain: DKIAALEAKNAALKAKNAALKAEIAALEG

4H3606-AA = biological target: T25, 4H3606-AA; test: two-hybrid library CCmax; conditions: mean of both orientations
T25 chain: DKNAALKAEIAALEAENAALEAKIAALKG

4H384-AA = biological target: T26, 4H384-AA; test: two-hybrid library CCmax; conditions: mean of both orientations
T26 chain: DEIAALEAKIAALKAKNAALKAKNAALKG

4H3718-AA = biological target: T27, 4H3718-AA; test: two-hybrid library CCmax; conditions: mean of both orientations
T27 chain: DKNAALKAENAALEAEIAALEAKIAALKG

4H3631-AA = biological target: T28, 4H3631-AA; test: two-hybrid library CCmax; conditions: mean of both orientations
T28 chain: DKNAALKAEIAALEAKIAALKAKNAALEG

4H340-AA = biological target: T29, 4H340-AA; test: two-hybrid library CCmax; conditions: mean of both orientations
T29 chain: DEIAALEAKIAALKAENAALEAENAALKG

4H2907-AA = biological target: T30, 4H2907-AA; test: two-hybrid library CCmax; conditions: mean of both orientations
T30 chain: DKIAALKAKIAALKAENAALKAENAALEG

4H2611-AA = biological target: T31, 4H2611-AA; test: two-hybrid library CCmax; conditions: mean of both orientations
T31 chain: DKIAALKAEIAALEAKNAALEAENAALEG

4H3413-AA = biological target: T32, 4H3413-AA; test: two-hybrid library CCmax; conditions: mean of both orientations
T32 chain: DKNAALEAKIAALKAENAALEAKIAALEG

4H3162-AA = biological target: T33, 4H3162-AA; test: two-hybrid library CCmax; conditions: mean of both orientations
T33 chain: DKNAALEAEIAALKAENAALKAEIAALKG

4H2648-AA = biological target: T34, 4H2648-AA; test: two-hybrid library CCmax; conditions: mean of both orientations
T34 chain: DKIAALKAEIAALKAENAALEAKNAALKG

4H3378-AA = biological target: T35, 4H3378-AA; test: two-hybrid library CCmax; conditions: mean of both orientations
T35 chain: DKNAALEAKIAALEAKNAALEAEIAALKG

4H982-AA = biological target: T36, 4H982-AA; test: two-hybrid library CCmax; conditions: mean of both orientations
T36 chain: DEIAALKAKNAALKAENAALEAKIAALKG

4H3133-AA = biological target: T37, 4H3133-AA; test: two-hybrid library CCmax; conditions: mean of both orientations
T37 chain: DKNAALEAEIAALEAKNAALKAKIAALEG

4H697-AA = biological target: T38, 4H697-AA; test: two-hybrid library CCmax; conditions: mean of both orientations
T38 chain: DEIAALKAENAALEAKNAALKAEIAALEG

4H2620-AA = biological target: T39, 4H2620-AA; test: two-hybrid library CCmax; conditions: mean of both orientations
T39 chain: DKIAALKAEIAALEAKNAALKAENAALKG

4H32-AA = biological target: T40, 4H32-AA; test: two-hybrid library CCmax; conditions: mean of both orientations
T40 chain: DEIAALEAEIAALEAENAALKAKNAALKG

4H3588-AA = biological target: T41, 4H3588-AA; test: two-hybrid library CCmax; conditions: mean of both orientations
T41 chain: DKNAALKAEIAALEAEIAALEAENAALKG

4H3865-AA = biological target: T42, 4H3865-AA; test: two-hybrid library CCmax; conditions: mean of both orientations
T42 chain: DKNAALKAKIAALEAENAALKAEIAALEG

4H3056-AA = biological target: T43, 4H3056-AA; test: two-hybrid library CCmax; conditions: mean of both orientations
T43 chain: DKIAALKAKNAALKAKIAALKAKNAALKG

4H3697-AA = biological target: T44, 4H3697-AA; test: two-hybrid library CCmax; conditions: mean of both orientations
T44 chain: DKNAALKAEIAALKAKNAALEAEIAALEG

4H55-AA = biological target: T45, 4H55-AA; test: two-hybrid library CCmax; conditions: mean of both orientations
T45 chain: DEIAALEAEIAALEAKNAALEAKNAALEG

4H3664-AA = biological target: T46, 4H3664-AA; test: two-hybrid library CCmax; conditions: mean of both orientations
T46 chain: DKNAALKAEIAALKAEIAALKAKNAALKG

4H3605-AA = biological target: T47, 4H3605-AA; test: two-hybrid library CCmax; conditions: mean of both orientations
T47 chain: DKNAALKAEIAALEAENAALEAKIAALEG

4H662-AA = biological target: T48, 4H662-AA; test: two-hybrid library CCmax; conditions: mean of both orientations
T48 chain: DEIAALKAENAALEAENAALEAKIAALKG

4H3922-AA = biological target: T49, 4H3922-AA; test: two-hybrid library CCmax; conditions: mean of both orientations
T49 chain: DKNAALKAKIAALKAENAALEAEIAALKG

4H4033-AA = biological target: T50, 4H4033-AA; test: two-hybrid library CCmax; conditions: mean of both orientations
T50 chain: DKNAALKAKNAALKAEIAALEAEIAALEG

4H2935-AA = biological target: T51, 4H2935-AA; test: two-hybrid library CCmax
T51 chain: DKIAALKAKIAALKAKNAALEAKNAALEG

4H327-AA = biological target: T52, 4H327-AA; test: two-hybrid library CCmax; conditions: mean of both orientations
T52 chain: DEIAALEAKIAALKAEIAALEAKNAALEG

4H481-AA = biological target: T53, 4H481-AA; test: two-hybrid library CCmax; conditions: mean of both orientations
T53 chain: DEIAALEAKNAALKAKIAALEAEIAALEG

4H369-AA = biological target: T54, 4H369-AA; test: two-hybrid library CCmax; conditions: mean of both orientations
T54 chain: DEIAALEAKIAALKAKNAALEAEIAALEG

4H3625-AA = biological target: T55, 4H3625-AA; test: two-hybrid library CCmax; conditions: mean of both orientations
T55 chain: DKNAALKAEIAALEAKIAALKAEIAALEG

- interaction score (4H883-bN): -0.871
- interaction score (4H454-bN): -0.726
- interaction score (4H918-bN): -0.605
- interaction score (4H908-bN): -0.992
- interaction score (4H3855-bN): -0.269
- interaction score (4H338-bN): -0.511
- interaction score (4H568-bN): -0.364
- interaction score (4H953-bN): -0.946
- interaction score (4H3427-bN): -0.405
- interaction score (4H72-bN): -1.09
- interaction score (4H967-bN): -1.24
- interaction score (4H4001-bN): -0.318
- interaction score (4H3782-bN): -1.06
- interaction score (4H3354-bN): 1.43
- interaction score (4H687-bN): -1.25
- interaction score (4H797-bN): -0.685
- interaction score (4H607-bN): -0.0582
- interaction score (4H717-bN): -0.894
- interaction score (4H754-bN): -0.289
B1: 4H3354-bN (peptide)
chain: DKNQQLEQKIQELEQENQELKWEIQELKQ

- interaction score (4H570-bA): 1.16
- interaction score (4H850-bA): -0.964
- interaction score (4H3974-bA): -0.665
- interaction score (4H3858-bA): 0.569
B2: 4H3858-bA (peptide)
chain: DKNAQLKQKIAELEQENAELEWEIAQLKQ

- interaction score (4H2553-AA): -1.66
- interaction score (4H3606-AA): 1.86
- interaction score (4H384-AA): -1.95
- interaction score (4H3718-AA): 1.12
- interaction score (4H3631-AA): -1.73
- interaction score (4H340-AA): -0.687
- interaction score (4H2907-AA): -1.73
- interaction score (4H2611-AA): -1.68
- interaction score (4H3413-AA): -1.58
- interaction score (4H3162-AA): -1.5
- interaction score (4H2648-AA): -0.498
- interaction score (4H3378-AA): -1.98
- interaction score (4H982-AA): 1.15
- interaction score (4H3133-AA): -2.05
- interaction score (4H697-AA): -1
- interaction score (4H2620-AA): -1.7
- interaction score (4H32-AA): -0.574
- interaction score (4H3588-AA): -1.93
- interaction score (4H3865-AA): -1.79
- interaction score (4H3056-AA): -1.68
- interaction score (4H3697-AA): -2.21
B3: 4H2553-AA (peptide)
chain: DKIAALEAKNAALKAKNAALKAEIAALEG

- interaction score (4H55-AA): 1.48
- interaction score (4H3664-AA): -1.44
- interaction score (4H3605-AA): -0.818
- interaction score (4H662-AA): -1.34
- interaction score (4H3922-AA): -1.89
- interaction score (4H4033-AA): -1.05
- interaction score (4H2935-AA): -1.28
- interaction score (4H327-AA): -0.77
- interaction score (4H481-AA): -1.6
- interaction score (4H369-AA): -1.13
- interaction score (4H3625-AA): -1.65
B4: 4H2935-AA (peptide)
chain: DKIAALKAKIAALKAKNAALEAKNAALEG
